According to the domain aggregation screens of Martell et al. (2025):

Experiment: soluble fraction after stress (log2 fold change); higher = more stays soluble; pooled small domains, quantitative proteomics
Details: stress: 50 degC
Method in brief: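 Each library was heated to 50°C as a stress step. The libraries, made up of small protein domains, were pooled and analysed at high throughput by quantitative proteomics. The reported value is the base-two logarithm of the fold change in each protein's soluble amount after stress, taken as a measure of aggregation propensity. The higher the value, the more protein stays in solution.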

Compared with “HMEWTDIPTHKVPNVVGKSVEEAKKKLSKFTIEYSGTGEKVVAQSPDAGEKLEEGGTVRLLL”, “HMGGQKTREAIFDLIMTNSKITSAQIAEILGIHRSGVARHLKKLQEEGLIKREGPDNGGQWIVIK” is lower in “soluble fraction (log2)” value: 0.203 for the first, -0.422 for the second.

Compared with “HMTQFSASSERAGAGGAYRTTLRAMEQNGDLLQISILLPDAVTAKHAATVWPERAQAIYTAILSELLK”, “HMKALEGMRTVFTLADLATEPVTVEITVLEAFKYTTTLEIVQRPVLREWMTNPSMLIRVYHDASTAE” is higher in “soluble fraction (log2)” value: -0.446 for the first, 0.144 for the second.

Compared with “HMFRSTLEELKHQISGFLKANQSQEFTAQNLADGLRMTSIAEYKRVVNAMDALVRDGELTFDAGKYQYNPN”, “HMQQQLLHIVFGGELKDVTGIEFEDLSKMDFVGAFSNYKDAYDAWKSAAQRTVDHAEMRYFILHAHKLL” is lower in “soluble fraction (log2)” value: -0.279 for the first, -5.48 for the second.

Going from “HMEETEVPPVTGYEQSKASEVLTGKGLIPDIITVADEETAAGYVIRTDPASGEKVPSGTTVKVYVSSGP” to “HMGGAVQIAEQIAARIKDGALRPGELLPPVRQLAAELEVNPNTVASAYARLRDAGLVATRGRAGTVVLEPP”, the “soluble fraction (log2)” value falls from 0.159 to -0.172.

Compared with “HMQTTVHLSPEEMVIMNALKQESPIDLPILRAQVEMSNKLWDTSMKNLSKLGQLKVEKIGEQVSVSLI”, “HMSTKEFTIHAGEWSYRVSQKLENLGLVSDAKKFDQYLEDNGYSSKIKIGHYTISKDADFEEIAKEIT” is higher in “soluble fraction (log2)” value: -0.257 for the first, 0.0383 for the second.

First: HMQMKDRILRIMEHEGISPSKFAEEIGIQRSAMSHIISGRNNPSLDVLTKIMQRFTYVDTDWLLFGKGSMV
Second: HMNTLSPVRILAILDGRSSMAEWQLAEELGVSIDNLSEILNKMSTDGQIRLVPSEDGRMVVP
The “soluble fraction (log2)” value of the first is lower: -0.737 for the first, 0.265 for the second.

Compared with “HMSELSEVIEKTFEELPEELKLIVKLREIDDLSYDEISNKIGIPIGTVRSRLHRAREILINIIKN”, “HMRPLTPLEKLTPDADGKYYHIVQSGETLSWIAKLYETTAEKLQAWNNLFSSDIFPNQKLLLQVTPP” is higher in “soluble fraction (log2)” value: -1.55 for the first, 0.0722 for the second.

Compared with “HMGDPEYFKKQLGDFMDRFNITSEDIKNLSIAGAINRMMNNAEGEDKTVLSKLLETVNKSGVGNLPAKTI”, “HMALSTRERMSFVLEVLKEKEFIPFVDLFSPEEGRAGVVVTFLALMELMKDSLIEIVQTKNFGEIHVRARL” is lower in “soluble fraction (log2)” value: 0.0622 for the first, -0.218 for the second.

“HMESVQWSVFPSAKYVTIISFDPTTSGGSATAKFKVSDEARSKGFRFRIEAAIGEGIMRSEMYVIEE” and “HMKEPGFAPPVRALAAAPITVLAQVAGTNPGEIRARLRAAGYPVASDQQSVQSLVGGDLKAQIGVLNRILA” are within 0.2 log units of each other in “soluble fraction (log2)” value: 0.0612 for the first, -0.00802 for the second.

“HMDSVEYRVITGDDVNFRKGPSTDYASLGKLNKGYKVEYISETNSWSKVKYNGQTGYVYSKYVAQT” and “HMLSAEAAAARTAISTLSEDQQRVLGLSIQRGLVHEQIARATGLPLGTVKTHIRRGLIKVREALEAQAAG” are within 0.2 log units of each other in “soluble fraction (log2)” value: 0.0362 for the first, -0.00728 for the second.

Compared with “HMKLSKKVTDFLAQMPSKSISPKMLANNLGLADDAGDYKHLLKTIAQLEESKAIEVTAAGNIALPQPE”, “HMGVSEIGSPAWMESKLVTLASYEGSLDGLRTLWGGVAQHRARIPVESWDRLFAAKEEGKARLVKLGRT” is lower in “soluble fraction (log2)” value: 0.0358 for the first, -1.19 for the second.

“HMGVEVEVPNVKGKLVADAEYELGLAQLTPVRTDSAYNRNLPPGTVLEQLPASGSHVKEGREIYLTINST” and “HMSTTGIVKWFNEEKGFGFITQDQGGADVFVHYRAIASEGFKTLAEGQKVSFEVEQGQKGLQAANVQA” are within 0.2 log units of each other in “soluble fraction (log2)” value: 0.264 for the first, 0.0843 for the second.

“HMNAELSTVQAAEVLNVSRPFLIKLLEDGAIPHRKVGKHRRVRMEDVMSYKAAIDTEREAVLDQLAA” and “HMAQDIEQLEKAVSFYTRMDPAAAALSITNLDQKTAVNILMRMKDKQASAVLESMTAERSSELIDSIARK” are within 0.2 log units of each other in “soluble fraction (log2)” value: 0.123 for the first, 0.00388 for the second.

“HMEPPPSYSALLKQISSGKVKELQLVPARREVIVTYPDGRSATVAILANDQQILRTAEAAGTPLLVK” and “HMPSNVKIPDVTGKTVAQARSAIEAAGLKVGKEKDEYSDSAKKDSVIRTNPQAGTQRREGSTVDLIVS” are within 0.2 log units of each other in “soluble fraction (log2)” value: 0.207 for the first, 0.122 for the second.

Going from “HMKQISNTDELETMVKKIIDDNEEQVNKYRGGNEKLFGWFVGQAMKNTGGTANPKVVNEILSKLLK” to “HMQIKNVDYGTFLDMLDEKNVKEVEIEDEQIVFTDNADPTGYYTTGRMEDPDLVDRLHNSGATFSAI”, the “soluble fraction (log2)” value falls from 0.0976 to -0.12.

Going from “HMLRDMIIQSYRYYTDKERNPRQVWNRMEADAFWEIIRDYEGYNGDGYVHTKIIPEMEALTVIEMDN” to “HMWGQDVLFTIDKKEFKGKLLEQSDKHTTFLPDGQKTPQKIPNRLIKEIHLGSNKIIDFGNDFLI”, the “soluble fraction (log2)” value rises from -1.62 to -0.179.

First: HMSIEHVPGYTTLSKREQEIVHALLTRKTPEELADDLSISINTLNKHISHIYHKLGIRGRMQLFDYA
Second: HMREKPRETFQRIAEKVGQTLRKGPVRVQQMDLLFSESREQVMEVLRAMAESGEIRIQDDTLHWNGHT
The “soluble fraction (log2)” value of the first is lower: -0.284 for the first, 0.311 for the second.

First: HMARRTPPPTVSELNALLRVAAPHIQRVILLGIYTGARIGPSELFSLKWDDVDLTRGVIGIRL
Second: HMNTPHLTPREREVLKGIVDGLINKEIAARMGVSVATVITHRNNLTEKLGTRSVSALTIFAVMHGIVR
The “soluble fraction (log2)” value of the first is higher: -0.0306 for the first, -2.49 for the second.

“HMQVSITGYLGGEKIGLFDDAKFKALAAKQGIAIDYRKAGSPAMMDADRKGMDYLFPSSRAAVEYGNAKGV” and “HMNNLELSEEEKSVLTIIEKEGLIELDKLKTKLELSNKKWDKTLKFLTKNKLAKVVKNDNGLFVEL” are within 0.2 log units of each other in “soluble fraction (log2)” value: -0.009 for the first, 0.0812 for the second.

Compared with “HMSTNYVQVLRAALNGVSGRKLAQQYRVSRDTVAILLRQAKIQGWQRAEDLENITEEDLVALLSG”, “HMDPEQLKIAINTKMPFGKYSGRPLLLLPEPYLVWFKQQGFPDSKLGSQLAMMYEVKLNGLEQMLMPLL” is lower in “soluble fraction (log2)” value: -0.373 for the first, -0.673 for the second.

Going from “HMDDGARQLVDQLNRLIANPAVSARIIHGYLILEGRVESEWEKTRTLLLAQVAGLPVIDLITVS” to “HMREQAHEVAGKLGYPVMVKASAGGGGKGIRIVRTEDELDQAFEAAQSETKAAFGDDQMYMEKVI”, the “soluble fraction (log2)” value rises from -1.85 to 0.00859.

First: HMVDPAFLAWQQKPENTWFGTDRRKTALAIAIAEEIRNDPANSNLVGAAFYARVAEETEETLN
Second: HMEFYYSDLVGMIVYDTGGNELGKVQAVLNHGAGDLLEIHGVNLKTSILIPFTKEAVPTVDIAARRIVTDP
The “soluble fraction (log2)” value of the first is lower: -0.628 for the first, 0.0733 for the second.

“HMGTVSSGSSSTDTPFSLGEIVRHKVFGEGVVLSIEGQGDASRIQINFNTAGTKWLVTAYADLEK” and “HMLRPMVAILNKNISKGQVISEDYIKFEVRPERQIHGAYHDISEVLGRKTKNNIAAGTILKVRHLDT” are within 0.2 log units of each other in “soluble fraction (log2)” value: -0.219 for the first, -0.201 for the second.

“HMEINEDEIYEKIMIEIEQDNKVKSTWAKALSQSDGNKDKAESLYISMRFEELKYHQSYQKEELNLKDNQQ” and “HMQRYFLEEAYQPSEKFELSAEAFHHIVHVMRMKPKDRVYLAFSDQQVIIAEITEITEEKVYLTEIEKEE” are within 0.2 log units of each other in “soluble fraction (log2)” value: 0.0911 for the first, -0.0978 for the second.

Compared with “HMYGQEVKVLGLFGDRAFIKVDEKSAVIRIGQSHQNVQLKSISNQKAILLVDNKDIALGLGDSYQSA”, “HMNLQAYQSVLDKLNEEYGTTFRFPTEEELHEVGLTNTVDPRTATVSATEFEKYMRPIAERISQANL” is higher in “soluble fraction (log2)” value: -0.244 for the first, -0.00884 for the second.

Compared with “HMDDKLKKLEEVFEMQEGTLTPDMRLDELEEWDSMTRLSLIVMMEDDYGKKVKRSEVMNYTTVQDIVDSME”, “HMNKSYTVPDVRGMTVEEAQEAEGVKDIFTVHVQGTRKTDEYQPGQIVEQDPIAGRTRKSNFVIEVYVAE” is higher in “soluble fraction (log2)” value: -0.5 for the first, 0.0819 for the second.

First: HMGVMNEYEELRDRYLTGQIWKIGDLVEAKGIEGKIIQRGTNYITFNDSQGKVHKAWLHEIKV
Second: HMATAEETTPLWARNRLSHAIFGPGSVTGEDERSFEVAFDNGDTLNFSKKSAHLYFTAMSSR
The “soluble fraction (log2)” value of the first is higher: 0.184 for the first, -0.0942 for the second.

Going from “HMTNIQFINLKMTDNHPWIHQYIKDIILPPQTRIVMIKRNDIKTIPKGERRIEKDDELILSAFESQT” to “HMEDELFSVARAAFPEYASKIHMNYGSTVQSIARQSGVLTVSETKQLNENQQISYLEYSNGAVVLALA”, the “soluble fraction (log2)” value rises from -1 to -0.0402.

“HMKSYAQIAEILSGQQPNTSRKEGSNLAVHADWIDALIAKYGTALRPEEANEVVKKEIGIVFSHVLEN” and “HMFIEMDEPEKILHRILNEANGKLELDKIGYRAEWPIGKVLTVLMSLELKGVVQSHPGKVYSL” are within 0.2 log units of each other in “soluble fraction (log2)” value: -0.0639 for the first, -0.154 for the second.

Going from “HMSDEIQLQFIQISIFKDHPWADMQIKDMNIIPDLLIVMILRDGERIIPNGNTRIMPGDMVIITAMSANT” to “HMSFNTNENKNLLWELMNKHNLFKDIDNQHYQEVQKLFEEEIVFISNNNKSLDLVEQNKKFLSSIITKLNK”, the “soluble fraction (log2)” value rises from -2.89 to -1.41.

Compared with “HMKLQIQNIEIDKKISELAEGVSAEKLPFLAKLIDRSKLLNDKGEINEDSVKAAIEEVVKAFPDFK”, “HMSGIGTTIKMLRENKNISQEELGNVLGVSDKTISSWEINRTEPKMGIVQLLADYFGVSTDYLIKG” is lower in “soluble fraction (log2)” value: 0.081 for the first, -0.146 for the second.

Compared with “HMNPTSLTFRSNVKDGKVYVDGIFKGSSDLDFDLPKGRHSIRIEKDGYVPFAKTINLIKALVIDFNMEKA”, “HMDVQGFVMDLDKPLDKEPIVEGFELKLEDSLTLVAAVNKDKSINSLFDELSKLGIKVKSMRNPP” is higher in “soluble fraction (log2)” value: -1.83 for the first, -0.0252 for the second.

Compared with “HMDYVKTLGETINVRVAASTDADIYKLLPGGEILNRVGYNEEWTKVMVDGSTFYVYSEYVIQTEPPA”, “HMPALPGNELLRNLMLEHGLKQVDLAEIGSQGVVSEILSGKRRINRRHADLLARRFSLPAELFSR” is higher in “soluble fraction (log2)” value: -1.37 for the first, -0.133 for the second.

First: HMVMATPHNTAKAGDIAKTVIMPGDPLRAKYIADNYLDNAVQFNVVRNIYGYTGVYRGTDISVMASGM
Second: HMDEYTAVDSRLDLELAMKRLKPEEAEVLRLVFDYGLPQRAIAERLGVSQMSVSRMQRRAIGKLKRWLSDN
The “soluble fraction (log2)” value of the first is higher: 0.128 for the first, -1.08 for the second.

First: HMTVKEYNRAVDEYSDAVWRFIRGNLRDEDRANDIVQDSFEKLWMHVTEIDYSVAKSWLFSTAYNNMIDI
Second: HMTEVPSLSSLKIGDLIFYRNNKGAIAHSAIITSFYNGRPFISQHTFNALNITYVKDWASKMHFIKIW
The “soluble fraction (log2)” value of the first is lower: -0.277 for the first, -0.0353 for the second.

First: HMIELDRTNLLGVFGPKSRPYALLMLSNGEMIKISIGDQFFGWRVYGIDEKSIQVQNGTKQEILRIP
Second: HMNSSTYIVTFKVDGEEDIVETYQWGDRIIVPEVEAKDDYVFIGWDAQIPEFMPERNLEFTAI
The “soluble fraction (log2)” value of the first is lower: -2.12 for the first, -1.14 for the second.

Compared with “HMNPHIQFWSLLRRQPDYNSAYKDELKAMFVWQWSGEKTESLNEFYKTDPYRYKSMLMDMRNRAL”, “HMQLNNTDELEKIILKILENNPKQVDQFLAGKQKLLGFFVGQAMRATSGKANPKTVNDLLEKFLSK” is higher in “soluble fraction (log2)” value: -3.15 for the first, -0.0714 for the second.

With “HMATRLPFGFAKRFGVLVEGKDDQITVYHKDGLQTAVILEIQRYLARPFRFEAVTPEEFERRLGLAYQS” the “soluble fraction (log2)” value was -0.808.
